These results are taken from article PMC3922912, “Structural basis of stereospecific reduction by quinuclidinone reductase” (AMB Express, 2014).

Data set [1] concerns the target NADPH-dependent 3-quinuclidinone reductase (RrQR) from Rhodotorula rubra (Rhodotorula rubra). The experiment in a line: crystal structure; RrQR in complex with NADPH; crystals grown at 278 K, sitting-drop vapor diffusion, 100 mM CHES (pH 10.0), 30% PEG8000, 3% sucrose; four protomers in the asymmetric unit; 2.2 Å.
Data set [2] relates to O=C1CN2CCC1CC2. Nature of the data set: purified protein. Format: biochemical, Rhodotorula mucilaginosa. As to conditions: 350 μM NADPH, 200 mM potassium phosphate pH 7.0, 37°C, substrate as HCl salt.
Data set [3] has as its target T1, NADPH-dependent 3-quinuclidinone reductase (RrQR) (Rhodotorula mucilaginosa, UniProt B9ZZZ6).
T1 construct: gene rqr; homotetramer; crystal model residues 7-272, residues 1-6 disordered
The experiment in a line: X-ray crystal structure, […] Å. Format: binding. As to conditions: crystals grown at 278 K, CHES pH 10.0, PEG8000; one NADPH per protomer.

As a reminder, the stoichiometry N is the number of molecules, sites or subunits per partner or assembly. Regarding “NADPH-dependent 3-quinuclidinone reductase (RrQR) from Rhodotorula rubra (enzyme)”, the stoichiometry N in data set [1] came to 4.

As usually defined, the Km is the substrate concentration at which the rate is half of its maximum. As a reminder, the Vmax is the rate approached at saturating substrate. One may read the kcat as the number of substrate molecules converted per active site and unit of time at saturation. As for “NADPH-dependent 3-quinuclidinone reductase (RrQR) (Rhodotorula mucilaginosa; N173A)”, in data set [2], the Km was found to be 100 mM, the Vmax came out at 11.6 µmol/min/mg and the turnover number (kcat) is 5.62 s⁻¹.

In the case of `NC(=O)C1=CN([C@@H]2O[C@H](COP(=O)(O)OP(=O)(O)OC[C@H]3O[C@@H](n4cnc5c(N)ncnc54)[C@H](OP(=O)(O)O)[C@@H]3O)[C@@H](O)[C@H]2O)C=CC1` [NADPH], the “X-ray crystal structure, 2.2 Å” value in data set [3] is listed as “A clear electron density for NADPH is observed in each protomer”.
